Results taken from patent US20190263889A1.
Values joined by “and” are separate entries in the source; they are usually repeats but may differ in a detail not shown here. Equal values may be shown once.

Experiments:
[1] = target: CTLA-4Fc mutant protein M6 (human (murine residues substituted)); experiment: ELISA; binder 0 (blank) on coated target
[2] = target: CTLA-4Fc mutant protein M4 (human (murine residues substituted)); experiment: ELISA; binder 0 (blank) on coated target
[3] = target: CTLA-4Fc mutant protein M8 (human (murine residues substituted)); experiment: ELISA; binder 0 (blank) on coated target
CTLA-4Fc mutant protein M8 (human (murine residues substituted)), sequence (chain, as listed by the source mutant): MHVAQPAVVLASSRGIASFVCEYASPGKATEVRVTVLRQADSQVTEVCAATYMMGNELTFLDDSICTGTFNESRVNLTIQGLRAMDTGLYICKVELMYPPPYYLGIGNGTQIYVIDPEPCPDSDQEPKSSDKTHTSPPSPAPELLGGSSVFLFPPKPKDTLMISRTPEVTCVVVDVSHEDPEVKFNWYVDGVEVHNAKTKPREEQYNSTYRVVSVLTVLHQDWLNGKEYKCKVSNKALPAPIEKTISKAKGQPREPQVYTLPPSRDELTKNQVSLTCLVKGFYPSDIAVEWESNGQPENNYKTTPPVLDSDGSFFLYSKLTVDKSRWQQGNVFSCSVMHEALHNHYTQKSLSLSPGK

[4] = target: CTLA-4Fc mutant protein M5 (human (murine residues substituted)); experiment: ELISA; binder 1 ug/ml on coated target
CTLA-4Fc mutant protein M5 (human (murine residues substituted)), sequence (chain, as listed by the source mutant): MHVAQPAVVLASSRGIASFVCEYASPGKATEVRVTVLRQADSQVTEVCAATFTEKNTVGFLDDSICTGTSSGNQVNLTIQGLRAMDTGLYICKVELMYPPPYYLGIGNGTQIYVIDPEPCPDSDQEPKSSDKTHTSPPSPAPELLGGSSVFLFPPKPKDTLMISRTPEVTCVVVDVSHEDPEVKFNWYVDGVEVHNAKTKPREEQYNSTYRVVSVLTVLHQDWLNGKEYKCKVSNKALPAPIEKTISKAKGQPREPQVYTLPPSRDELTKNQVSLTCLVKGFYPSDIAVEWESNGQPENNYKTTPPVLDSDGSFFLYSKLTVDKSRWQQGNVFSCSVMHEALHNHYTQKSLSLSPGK

[5] = target: CTLA-4Fc mutant protein M7 (human (murine residues substituted)); experiment: ELISA; binder 1 ug/ml on coated target
CTLA-4Fc mutant protein M7 (human (murine residues substituted)), sequence (chain, as listed by the source mutant): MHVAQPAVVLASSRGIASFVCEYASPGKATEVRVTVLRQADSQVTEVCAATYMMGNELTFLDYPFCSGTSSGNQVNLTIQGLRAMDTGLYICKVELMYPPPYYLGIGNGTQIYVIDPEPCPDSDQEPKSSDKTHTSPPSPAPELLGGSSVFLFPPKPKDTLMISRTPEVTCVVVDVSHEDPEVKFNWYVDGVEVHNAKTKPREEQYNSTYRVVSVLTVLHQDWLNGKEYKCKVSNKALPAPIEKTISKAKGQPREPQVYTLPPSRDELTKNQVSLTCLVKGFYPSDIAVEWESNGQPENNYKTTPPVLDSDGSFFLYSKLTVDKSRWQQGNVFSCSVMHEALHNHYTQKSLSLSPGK

[6] = target: CTLA-4Fc mutant protein M9 (human (murine residues substituted)); experiment: ELISA; binder 1 ug/ml on coated target
CTLA-4Fc mutant protein M9 (human (murine residues substituted)), sequence (chain, as listed by the source mutant): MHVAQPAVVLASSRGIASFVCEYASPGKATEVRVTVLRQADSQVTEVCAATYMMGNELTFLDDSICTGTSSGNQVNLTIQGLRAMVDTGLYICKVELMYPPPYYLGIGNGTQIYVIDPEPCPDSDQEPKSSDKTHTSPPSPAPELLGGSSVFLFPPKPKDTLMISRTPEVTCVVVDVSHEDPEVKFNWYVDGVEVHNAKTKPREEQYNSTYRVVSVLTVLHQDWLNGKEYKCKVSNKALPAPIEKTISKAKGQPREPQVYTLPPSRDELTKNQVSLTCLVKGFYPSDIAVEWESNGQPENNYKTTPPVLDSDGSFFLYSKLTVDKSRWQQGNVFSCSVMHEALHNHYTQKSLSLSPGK

[7] = target: CTLA-4Fc mutant protein M2 (human (murine residues substituted)); experiment: ELISA; binder 1 ug/ml on coated target
CTLA-4Fc mutant protein M2 (human (murine residues substituted)), sequence (chain, as listed by the source mutant): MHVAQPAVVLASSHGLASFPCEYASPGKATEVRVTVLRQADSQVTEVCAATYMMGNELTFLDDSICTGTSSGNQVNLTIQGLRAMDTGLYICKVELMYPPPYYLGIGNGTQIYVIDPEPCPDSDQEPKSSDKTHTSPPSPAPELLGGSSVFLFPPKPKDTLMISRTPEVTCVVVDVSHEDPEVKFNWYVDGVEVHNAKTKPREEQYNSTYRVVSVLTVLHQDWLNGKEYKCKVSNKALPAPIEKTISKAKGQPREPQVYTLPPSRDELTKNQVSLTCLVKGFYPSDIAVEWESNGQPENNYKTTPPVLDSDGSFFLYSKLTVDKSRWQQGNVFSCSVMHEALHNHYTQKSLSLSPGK

[8] = target: CTLA-4Fc mutant protein M3 (human (murine residues substituted)); experiment: ELISA; binder 1 ug/ml on coated target
CTLA-4Fc mutant protein M3 (human (murine residues substituted)), sequence (chain, as listed by the source mutant): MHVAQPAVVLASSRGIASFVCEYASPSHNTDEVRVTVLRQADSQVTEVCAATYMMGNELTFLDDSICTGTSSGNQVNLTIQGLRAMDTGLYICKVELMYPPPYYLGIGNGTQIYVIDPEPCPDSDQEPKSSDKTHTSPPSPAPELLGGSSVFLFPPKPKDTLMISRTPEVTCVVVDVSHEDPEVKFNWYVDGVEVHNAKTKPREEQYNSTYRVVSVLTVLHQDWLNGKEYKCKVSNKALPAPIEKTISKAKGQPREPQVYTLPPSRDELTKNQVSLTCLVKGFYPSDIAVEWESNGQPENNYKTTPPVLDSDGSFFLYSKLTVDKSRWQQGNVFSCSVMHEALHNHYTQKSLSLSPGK

[9] = target: CTLA-4Fc mutant protein M6 (human (murine residues substituted)); experiment: ELISA; binder 1 ug/ml on coated target
[10] = target: CTLA-4Fc mutant protein M4 (human (murine residues substituted)); experiment: ELISA; binder 1 ug/ml on coated target
[11] = target: CTLA-4Fc mutant protein M10 (human (murine residues substituted)); experiment: ELISA; binder 1 ug/ml on coated target
CTLA-4Fc mutant protein M10 (human (murine residues substituted)), sequence (chain, as listed by the source mutant): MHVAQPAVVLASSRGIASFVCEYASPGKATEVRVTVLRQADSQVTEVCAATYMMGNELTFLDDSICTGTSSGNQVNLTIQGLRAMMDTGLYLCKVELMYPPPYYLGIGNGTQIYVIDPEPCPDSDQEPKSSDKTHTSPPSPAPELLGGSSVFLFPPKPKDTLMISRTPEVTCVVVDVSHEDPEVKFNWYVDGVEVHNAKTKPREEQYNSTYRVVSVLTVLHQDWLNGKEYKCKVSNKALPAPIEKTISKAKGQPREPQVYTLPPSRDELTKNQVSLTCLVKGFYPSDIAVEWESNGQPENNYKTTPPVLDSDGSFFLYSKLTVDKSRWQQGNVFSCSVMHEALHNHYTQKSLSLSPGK

[12] = target: CTLA-4Fc mutant protein M11 (human (murine residues substituted)); experiment: ELISA; binder 1 ug/ml on coated target
CTLA-4Fc mutant protein M11 (human (murine residues substituted)), sequence (chain, as listed by the source mutant): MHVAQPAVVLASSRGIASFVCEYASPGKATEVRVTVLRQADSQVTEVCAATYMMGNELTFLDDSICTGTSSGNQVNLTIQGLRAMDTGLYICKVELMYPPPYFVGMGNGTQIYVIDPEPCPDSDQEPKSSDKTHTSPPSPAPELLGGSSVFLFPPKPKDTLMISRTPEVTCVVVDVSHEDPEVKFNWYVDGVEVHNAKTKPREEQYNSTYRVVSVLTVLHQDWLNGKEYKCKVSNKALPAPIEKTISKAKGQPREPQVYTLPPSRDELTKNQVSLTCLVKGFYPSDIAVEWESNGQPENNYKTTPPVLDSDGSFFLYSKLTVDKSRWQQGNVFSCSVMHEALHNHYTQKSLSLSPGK

[13] = target: CTLA-4Fc mutant protein M8 (human (murine residues substituted)); experiment: ELISA; binder 1 ug/ml on coated target
[14] = target: CTLA-4Fc mutant protein M1 (human (murine residues substituted)); experiment: ELISA; binder 1 ug/ml on coated target
CTLA-4Fc mutant protein M1 (human (murine residues substituted)), sequence (chain, as listed by the source mutant): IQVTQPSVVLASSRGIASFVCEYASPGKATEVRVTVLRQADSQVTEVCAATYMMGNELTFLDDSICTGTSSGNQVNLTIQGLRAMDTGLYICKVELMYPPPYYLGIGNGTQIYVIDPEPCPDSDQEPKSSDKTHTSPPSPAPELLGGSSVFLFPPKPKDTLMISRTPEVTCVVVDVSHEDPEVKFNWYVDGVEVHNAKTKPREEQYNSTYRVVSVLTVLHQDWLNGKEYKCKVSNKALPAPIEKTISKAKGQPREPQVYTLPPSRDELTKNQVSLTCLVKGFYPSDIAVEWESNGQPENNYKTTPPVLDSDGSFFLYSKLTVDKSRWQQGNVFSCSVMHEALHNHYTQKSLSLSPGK

[15] = target: wild type human CTLA-4Fc fusion protein (abatacept) (human); experiment: ELISA; binder 1 ug/ml on coated target
wild type human CTLA-4Fc fusion protein (abatacept) (human), sequence (chain, as listed by the source limits assumed): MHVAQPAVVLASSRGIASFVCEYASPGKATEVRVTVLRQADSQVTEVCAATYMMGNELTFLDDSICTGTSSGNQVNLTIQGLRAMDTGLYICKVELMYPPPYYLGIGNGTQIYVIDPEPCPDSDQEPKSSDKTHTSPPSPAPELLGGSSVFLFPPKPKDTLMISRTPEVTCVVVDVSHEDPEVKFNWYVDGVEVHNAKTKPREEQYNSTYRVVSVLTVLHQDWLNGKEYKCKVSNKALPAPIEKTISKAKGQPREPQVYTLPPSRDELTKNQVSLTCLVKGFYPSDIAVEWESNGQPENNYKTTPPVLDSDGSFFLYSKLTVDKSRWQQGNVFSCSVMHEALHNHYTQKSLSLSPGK

[16] = target: CTLA-4Fc mutant protein M5 (human (murine residues substituted)); experiment: ELISA; binder 0 (blank) on coated target
[17] = target: CTLA-4Fc mutant protein M7 (human (murine residues substituted)); experiment: ELISA; binder 0 (blank) on coated target
[18] = target: CTLA-4Fc mutant protein M9 (human (murine residues substituted)); experiment: ELISA; binder 0 (blank) on coated target
[19] = target: mouse CTLA-4-Fc (mouse) (UniProt P09793); experiment: ELISA; binder 0 (blank) on coated target
mouse CTLA-4-Fc (mouse), sequence (P09793 36-161 limits assumed): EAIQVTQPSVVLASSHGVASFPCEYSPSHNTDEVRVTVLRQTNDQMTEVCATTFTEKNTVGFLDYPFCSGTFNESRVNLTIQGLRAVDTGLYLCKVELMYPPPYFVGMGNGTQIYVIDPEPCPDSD

[20] = target: CTLA-4Fc mutant protein M2 (human (murine residues substituted)); experiment: ELISA; binder 0 (blank) on coated target
[21] = target: CTLA-4Fc mutant protein M3 (human (murine residues substituted)); experiment: ELISA; binder 0 (blank) on coated target
[22] = target: CTLA-4Fc mutant protein M6 (human (murine residues substituted)); experiment: ELISA; binder 0 (blank) on coated target; remark: listed apart in the source
[23] = target: human IgG1-Fc control (human) [IgG part: P01857]; experiment: ELISA; binder 0 (blank) on coated target
[24] = target: CTLA-4Fc mutant protein M4 (human (murine residues substituted)); experiment: ELISA; binder 0 (blank) on coated target; remark: listed apart in the source
[25] = target: CTLA-4Fc mutant protein M10 (human (murine residues substituted)); experiment: ELISA; binder 0 (blank) on coated target
[26] = target: CTLA-4Fc mutant protein M11 (human (murine residues substituted)); experiment: ELISA; binder 0 (blank) on coated target
[27] = target: CTLA-4Fc mutant protein M8 (human (murine residues substituted)); experiment: ELISA; binder 0 (blank) on coated target; remark: listed apart in the source
[28] = target: CTLA-4Fc mutant protein M1 (human (murine residues substituted)); experiment: ELISA; binder 0 (blank) on coated target
[29] = target: wild type human CTLA-4Fc fusion protein (abatacept) (human); experiment: ELISA; binder 0 (blank) on coated target
[30] = target: CTLA-4Fc mutant protein M11 (human (murine residues substituted)); experiment: ELISA, target coated 1 ug/mL, biotinylated binder
[31] = target: CTLA-4Fc mutant protein M5 (human (murine residues substituted)); experiment: ELISA; binder 100 ng/ml on coated target
[32] = target: CTLA-4Fc mutant protein M7 (human (murine residues substituted)); experiment: ELISA; binder 100 ng/ml on coated target
[33] = target: CTLA-4Fc mutant protein M9 (human (murine residues substituted)); experiment: ELISA; binder 100 ng/ml on coated target
[34] = target: mouse CTLA-4-Fc (mouse) (UniProt P09793); experiment: ELISA; binder 100 ng/ml on coated target
[35] = target: CTLA-4Fc mutant protein M2 (human (murine residues substituted)); experiment: ELISA; binder 100 ng/ml on coated target
[36] = target: CTLA-4Fc mutant protein M3 (human (murine residues substituted)); experiment: ELISA; binder 100 ng/ml on coated target
[37] = target: CTLA-4Fc mutant protein M6 (human (murine residues substituted)); experiment: ELISA; binder 100 ng/ml on coated target
[38] = target: human IgG1-Fc control (human) [IgG part: P01857]; experiment: ELISA; binder 100 ng/ml on coated target
[39] = target: CTLA-4Fc mutant protein M4 (human (murine residues substituted)); experiment: ELISA; binder 100 ng/ml on coated target
[40] = target: CTLA-4Fc mutant protein M10 (human (murine residues substituted)); experiment: ELISA; binder 100 ng/ml on coated target
[41] = target: CTLA-4Fc mutant protein M11 (human (murine residues substituted)); experiment: ELISA; binder 100 ng/ml on coated target
[42] = target: CTLA-4Fc mutant protein M8 (human (murine residues substituted)); experiment: ELISA; binder 100 ng/ml on coated target
[43] = target: CTLA-4Fc mutant protein M1 (human (murine residues substituted)); experiment: ELISA; binder 100 ng/ml on coated target
[44] = target: wild type human CTLA-4Fc fusion protein (abatacept) (human); experiment: ELISA; binder 100 ng/ml on coated target

CTLA-4Fc mutant protein M4 (human (murine residues substituted)), sequence (chain, as listed by the source mutant): as the sequence (chain, as listed by the source limits assumed) above, with Q39T, A40N, S42Q, Q43M counted along it
CTLA-4Fc mutant protein M6 (human (murine residues substituted)), sequence (chain, as listed by the source mutant): as the sequence (chain, as listed by the source limits assumed) above, with A50T counted along it

OD450 [1]: 0.192 OD450 and 0.176 OD450
OD450 [2]: 0.184 OD450 and 0.176 OD450
OD450 [3]: 0.187 OD450 and 0.17 OD450
OD450 [4]: 3.02 OD450 and 3.03 OD450
OD450 [5]: 3.15 OD450 and 2.99 OD450
OD450 [6]: 0.916 OD450
OD450 [7]: 2.39 OD450 and 2.62 OD450
OD450 [8]: 3.18 OD450 and 3.12 OD450
OD450 [9]: 3.09 OD450 and 3.07 OD450
OD450 [10]: 2.65 OD450 and 2.66 OD450
OD450 [11]: 0.804 OD450 and 0.868 OD450
OD450 [12]: 2.84 OD450 and 2.98 OD450
OD450 [13]: 3.14 OD450 and 3.03 OD450
OD450 [14]: 3.27 OD450 and 2.97 OD450
OD450 [15]: 3.37 OD450 and 3.11 OD450
OD450 [16]: 0.177 OD450 and 0.229 OD450
OD450 [17]: 0.186 OD450 and 0.142 OD450
OD450 [18]: 0.15 OD450 and 0.293 OD450
OD450 [19]: 0.19 OD450 and 0.189 OD450
OD450 [20]: 0.377 OD450 and 0.538 OD450
OD450 [21]: 0.183 OD450 and 0.167 OD450
OD450 [22]: 0.183 OD450 and 0.177 OD450
OD450 [23]: 0.198 OD450 and 0.184 OD450
OD450 [24]: 0.22 OD450 and 0.18 OD450
OD450 [25]: 0.215 OD450 and 0.114 OD450
OD450 [26]: 0.171 OD450 and 0.155 OD450
OD450 [27]: 0.368 OD450 and 0.217 OD450
OD450 [28]: 0.222 OD450
OD450 [29]: 0.18 OD450 and 0.177 OD450
fold reduction of binding against WT CTLA-4Fc [30]: 100 fold
OD450 [31]: 3.25 OD450 and 3.32 OD450
OD450 [32]: 2.67 OD450 and 2.88 OD450
OD450 [33]: 0.419 OD450 and 0.346 OD450
OD450 [34]: 0.303 OD450 and 0.314 OD450
OD450 [35]: 1.31 OD450 and 1.37 OD450
OD450 [36]: 2.24 OD450 and 2.54 OD450
OD450 [37]: 3.03 OD450
OD450 [38]: 0.315 OD450 and 0.326 OD450
OD450 [39]: 2.23 OD450 and 2.36 OD450
OD450 [40]: 0.26 OD450 and 0.272 OD450
OD450 [41]: 0.752 OD450 and 0.746 OD450
OD450 [42]: 3.02 OD450 and 3.16 OD450
OD450 [43]: 3.19 OD450 and 3.57 OD450
OD450 [44]: 3.32 OD450 and 3.46 OD450
Substance: chimeric L3D10 anti-human CTLA-4 antibody
